# T1: HLA-A2 (human), P04439
# T1 chain: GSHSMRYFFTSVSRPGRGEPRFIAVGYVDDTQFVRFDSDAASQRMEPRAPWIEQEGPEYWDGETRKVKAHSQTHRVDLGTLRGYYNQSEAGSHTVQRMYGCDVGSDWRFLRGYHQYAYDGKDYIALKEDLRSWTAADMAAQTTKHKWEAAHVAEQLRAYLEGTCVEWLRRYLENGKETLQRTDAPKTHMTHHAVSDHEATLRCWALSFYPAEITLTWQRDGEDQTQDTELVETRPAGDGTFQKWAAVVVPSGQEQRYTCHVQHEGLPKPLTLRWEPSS
# Target: T1, HLA-A2 (human), P04439
# Assay: competitive binding assay (flow cytometry)
# Conditions: modification not given
row,Binder,IC50
1,ALLVMCIVL [FAPα18-26 (…)],650 µM
2,"KLLEENKEV [FAPα486-494 (487L, 494V) (…)]",25.4 µM
3,KLLEENKEL [FAPα486-494 (487L) (…)],21.3 µM
4,VLALLVMCI [FAPα16-24 (…)],150 µM
5,ALVCYGPGV [FAPα463-471 (471V) (…)],4.6 µM
6,ALVCYGPGL [FAPα463-471 (471L) (…)],3.9 µM

# — patent publication US20080058272A1, “Nonamer Peptides for Cancer Treatment” (priority 2006, published 2008)
